This assay addresses mitochondrial heat shock protein 60, wild type (mtHsp60) (human), P10809. Briefly: SEC; analytical SEC of each protein alone (mtHsp60 samples 17 µM monomer); Superdex 200 Increase 3.2/300, room temperature, 20 mM HEPES pH 7.5, 100 mM KCl, 10 mM MgCl2. The settings on record: remark: other sources report otherwise. (In general: In gel filtration, larger molecules generally elute earlier.)

For orientation: stoichiometry N means the number of molecules, sites or subunits per partner or assembly.

B1: mitochondrial heat shock protein 60, wild type (mtHsp60), P10809 27-573 (natural protein)
chain: AKDVKFGADARALMLQGVDLLADAVAVTMGPKGRTVIIEQSWGSPKVTKDGVTVAKSIDLKDKYKNIGAKLVQDVANNTNEEAGDGTTTATVLARSIAKEGFEKISKGANPVEIRRGVMLAVDAVIAELKKQSKPVTTPEEIAQVATISANGDKEIGNIISDAMKKVGRKGVITVKDGKTLNDELEIIEGMKFDRGYISPYFINTSKGQKCEFQDAYVLLSEKKISSIQSIVPALEIANAHRKPLVIIAEDVDGEALSTLVLNRLKVGLQVVAVKAPGFGDNRKNQLKDMAIATGGAVFGEEGLTLNLEDVQPHDLGKVGEVIVTKDDAMLLKGKGDKAQIEKRIQEIIEQLDVTTSEYEKEKLNERLAKLSDGVAVLKVGGTSDVEVNEKKDRVTDALNATRAAVEEGIVLGGGCALLRCIPALDSLTPANEDQKIGIEIIKRTLKIPAMTIAKNAGVEGSLIVEKIMQSSSEVGYDAMAGDFVNMVEKGIIDPTKVVRTALLDAAGVASLLTTAEVVVTEIPKEEKDPGMGAMGGMGGGMGGGMF
B1 registered a stoichiometry N of 7.
